Source: US7163686

Legend:
[1] = molecular target: representative VHIII-encoded IgG2a Moab (moderate affinity clan VHIII, murine 7183-encoded antibody); experiment: inhibition ELISA: SpA form in solution preincubated with the murine 7183-encoded IgG2a, then wells coated with tetmDomD′; human Fc fragments added
[2] = molecular target: biotinylated-purified IgG Fc fragments (Jackson Labs); experiment: inhibition ELISA: protein in solution incubated with biotinylated IgG Fc fragments, wells coated with SpA, streptavidin-AP

Substance “Staphylococcal protein A (SpA), native, recombinant rSpA (Repligen) (from UniProt P38507 37-437)” has an IC50 [1] of 2 µM and an IC50 [2] of 0.4 µM.

In the case of “SpA domain D (wildtype), monomer (from UniProt P38507 93-153)”, the IC50 [1] is reported as 10000 µM and the IC50 [2] is reported as 200 µM.

Work on “TetmDomD′ (four-domain concatamer of mutant SpA domain D′, L17D/I31A) (from UniProt P38507 93-153; P38507 93-153; P38507 93-153; P38507 93-153)” yielded an IC50 [1] of 5000 µM.
